Experiments:
Assay in all cases: cryo-EM structure
[1] = molecular target: pentameric vertex complex of CIV (vertex protein) (Chilo iridescent virus (CIV))
[2] = molecular target: zip protein (CIV minor capsid protein) (Chilo iridescent virus (CIV))
cryo-EM structure = molecular target: the molecule itself

Molecule: pentameric vertex complex of CIV (vertex protein) (natural protein)
- stoichiometry N [1]: 5

Molecule: zip protein (CIV minor capsid protein) (natural protein)
- stoichiometry N [2]: 2

B1: P50, the CIV major capsid protein (MCP) (natural protein)
chain: MSISSSNVTSGFIDIATKDEIEKYMYGGKTSTAYFVRETRKATWFTQVPVSLTRANGSANFGSEWSASISRAGDYLLYTWLRVRIPSVTLLSTNQFGANGRIRWCRNFMHNLIRECSITFNDLVAARFDHYHLDFWAAFTTPASKAVGYDNMIGNVSALIQPQPVPVAPATVSLPEADLNLPLPFFFSRDSGVALPTAALPYNEMRINFQFHDWQRLLILDNIAAVASQTVVPVVGATSDIATAPVLHHGTVWGNYAIVSNEERRRMGCSVRDILVEQVQTAPRHVWNPTTNDAPNYDIRFSHAIKALFFAVRNTTFSNQPSNYTTASPVITSTTVILEPSTGAFDPIHHTTLIYENTNRLNHMGSDYFSLVNPWYHAPTIPGLTGFHEYSYSLAFNEIDPMGSTNYGKLTNISIVPTASPAAKVGAAGTGPAGSGQNFPQTFEFIVTALNNNIIRISGGALGFPVL
- stoichiometry N (cryo-EM structure): 3

Reference: PMC2911444 (Journal of molecular biology, 2008)
